Consider 94 variants from the supplement of paper PMC10567573.

The labels stand for the following.
B1: ZNF207 (parent)
chain: FPSAGQAQAAVQGPVGTDFKPLNS
B2: C19orf51 (parent)
chain: FAPQTGARPSETFARFCKSQESAL
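Note: lentivirally expressed fusions sorted by FACS into six bins by GFP to DsRed ratio, PSI derived from sequencing read proportions per bin multiplied by bin number.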

Variants of B1 are the subject of the first data set. The experiment in a line: protein stability index of a GFP-peptide fusion (GPS, HEK-293T) (PSI 1-6); higher = more stable. The settings on record: c terminus: a fixed tail appended.
Take FPSAGQAQAAVQGPVGTDFKPLNA: the protein stability index turned out to be 3.36. Still for that read-out and setting: the same measure for FPSAGQAQAAVQGPVGTDFKPLND: 4.02. Same read-out and setting: the same measure for FPSAGQAQAAVQGPVGTDFKPLNQ: 3.43. As to FPSAGQAQAAVQGPVGTDFKPLNK, the protein stability index came out at 3.71. Still for that read-out and setting: the figure for FPSAGQAQAAVQGPVGTDFKPLNF is 2.63; for FPSAGQAQAAVQGPVGTDFKPLNV it is 3.19; for FPSAGQAQAAVQGPVGTDFKPLNE it is 3.77. On the same count and under the same terms, the same measure for FPSAGQAQAAVQGPVGTDFKPLNR: 3.15.

FPSAGQAQAAVQGPVGTDFKPLNP: the protein stability index is 3.54. Same read-out and setting: the figure for FPSAGQAQAAVQGPVGTDFKPLNC is 3.31. Take FPSAGQAQAAVQGPVGTDFKPLNT: the protein stability index was found to be 3.37. On the same count and under the same terms, the same measure for FPSAGQAQAAVQGPVGTDFKPLNL: 3.12; for FPSAGQAQAAVQGPVGTDFKPLNN: 3.92. In the case of FPSAGQAQAAVQGPVGTDFKPLNW, the protein stability index came out at 1.89. The same measure, in the same setting: the figure for FPSAGQAQAAVQGPVGTDFKPLNM is 3.08; for FPSAGQAQAAVQGPVGTDFKPLNH it is 3.73; for FPSAGQAQAAVQGPVGTDFKPLNG it is 3.15.

FPSAGQAQAAVQGPVGTDFKPLNI: the protein stability index was 2.98. Turning to FPSAGQAQAAVQGPVGTDFKPLNY, the protein stability index is 2.63.

With FPSAGQAQAAVQGPVGTDFKPRNS, the protein stability index stood at 3.89.

For the variant FPSAGQAQAAVQGPVGTDFKPSNS, the protein stability index stood at 3.95. Still for that read-out and setting: the same measure for FPSAGQAQAAVQGPVGTDFKPDNS: 4.46. Same read-out and setting: the same measure for FPSAGQAQAAVQGPVGTDFKPCNS: 3.35. On to FPSAGQAQAAVQGPVGTDFKPVNS, for which the protein stability index turned out to be 3.86. As to FPSAGQAQAAVQGPVGTDFKPWNS, the protein stability index was found to be 2.69.

As for FPSAGQAQAAVQGPVGTDFKPTNS, the protein stability index was found to be 3.64. Take FPSAGQAQAAVQGPVGTDFKPNNS: the protein stability index came to 4.33. With FPSAGQAQAAVQGPVGTDFKPFNS, the protein stability index was found to be 3.61. The same measure, in the same setting: the same measure for FPSAGQAQAAVQGPVGTDFKPINS: 3.71; for FPSAGQAQAAVQGPVGTDFKPYNS: 3.61; for FPSAGQAQAAVQGPVGTDFKPHNS: 4.15. Still for that read-out and setting: the figure for FPSAGQAQAAVQGPVGTDFKPPNS is 3.63. Same read-out and setting: the same measure for FPSAGQAQAAVQGPVGTDFKPMNS: 3.69. For the variant FPSAGQAQAAVQGPVGTDFKPANS, the protein stability index came out at 3.67. On the same count and under the same terms, the figure for FPSAGQAQAAVQGPVGTDFKPKNS is 3.58. Take FPSAGQAQAAVQGPVGTDFKPGNS: the protein stability index was 3.25.

In the case of FPSAGQAQAAVQGPVGTDFKPQNS, the protein stability index turned out to be 2.92.

Consider FPSAGQAQAAVQGPVGTDFKPENS, for which the protein stability index came to 3.81. Consider FPSAGQAQAAVQGPVGTDFKWLNS, for which the protein stability index was determined as 2.67. On the same count and under the same terms, the same measure for FPSAGQAQAAVQGPVGTDFKGLNS: 3.13. For FPSAGQAQAAVQGPVGTDFKNLNS, the protein stability index came to 3.62. On to FPSAGQAQAAVQGPVGTDFKTLNS, for which the protein stability index came out at 3.17. Still for that read-out and setting: the same measure for FPSAGQAQAAVQGPVGTDFKILNS: 2.87. On the same count and under the same terms, the figure for FPSAGQAQAAVQGPVGTDFKLLNS is 2.51; for FPSAGQAQAAVQGPVGTDFKSLNS it is 3.62; for FPSAGQAQAAVQGPVGTDFKYLNS it is 3.31. The same measure, in the same setting: the same measure for FPSAGQAQAAVQGPVGTDFKHLNS: 3.28; for FPSAGQAQAAVQGPVGTDFKRLNS: 3.77. Turning to FPSAGQAQAAVQGPVGTDFKKLNS, the protein stability index was determined as 3.69. Same read-out and setting: the same measure for FPSAGQAQAAVQGPVGTDFKQLNS: 3.88; for FPSAGQAQAAVQGPVGTDFKMLNS: 3.36; for FPSAGQAQAAVQGPVGTDFKVLNS: 2.87.

For FPSAGQAQAAVQGPVGTDFKPLAS, the protein stability index came to 2.88. Still for that read-out and setting: the figure for FPSAGQAQAAVQGPVGTDFKPLTS is 3.45; for FPSAGQAQAAVQGPVGTDFKPLLS it is 2.71; for FPSAGQAQAAVQGPVGTDFKPLKS it is 3.48. Turning to FPSAGQAQAAVQGPVGTDFKPLDS, the protein stability index came to 3.55. For FPSAGQAQAAVQGPVGTDFKPLIS, the protein stability index is 3.15. The same measure, in the same setting: the figure for FPSAGQAQAAVQGPVGTDFKPLMS is 3.17. With FPSAGQAQAAVQGPVGTDFKPLGS, the protein stability index is 3.07. Same read-out and setting: the same measure for FPSAGQAQAAVQGPVGTDFKPLFS: 2.41; for FPSAGQAQAAVQGPVGTDFKPLCS: 3.37.

Consider FPSAGQAQAAVQGPVGTDFKPLQS, for which the protein stability index came out at 3.22.

Consider FPSAGQAQAAVQGPVGTDFKPLYS, for which the protein stability index amounted to 2.68.

On to FPSAGQAQAAVQGPVGTDFKPLES, for which the protein stability index is 3.44. Still for that read-out and setting: the same measure for FPSAGQAQAAVQGPVGTDFKPLHS: 3.44.

Regarding FPSAGQAQAAVQGPVGTDFKPLWS, the protein stability index is 2.01. The same measure, in the same setting: the figure for FPSAGQAQAAVQGPVGTDFKPLSS is 3.25; for FPSAGQAQAAVQGPVGTDFKPLRS it is 3.91. On to FPSAGQAQAAVQGPVGTDFKPLPS, for which the protein stability index was found to be 3.03.

As to FPSAGQAQAAVQGPVGTDFKPLVS, the protein stability index turned out to be 2.93.

The next data set covers variants of B2. The description is as above. The conditions noted are these: c terminus: a fixed tail appended.
Consider FAPQTGATPSETFARFCKSQESAL, for which the protein stability index is 1.89.

Turning to FAPQTGADPSETFARFCKSQESAL, the protein stability index turned out to be 2.13.

In the case of FAPQTGALPSETFARFCKSQESAL, the protein stability index turned out to be 3.45. As for FAPQTGAGPSETFARFCKSQESAL, the protein stability index came to 1.94. As for FAPQTGAVPSETFARFCKSQESAL, the protein stability index is 2.1. Same read-out and setting: the figure for FAPQTGAPPSETFARFCKSQESAL is 2.83.

Take FAPQTGAHPSETFARFCKSQESAL: the protein stability index is 2.88. The same measure, in the same setting: the same measure for FAPQTGAWPSETFARFCKSQESAL: 2.52; for FAPQTGASPSETFARFCKSQESAL: 2.38; for FAPQTGAAPSETFARFCKSQESAL: 2.93. Regarding FAPQTGAEPSETFARFCKSQESAL, the protein stability index was 2.65.

FAPQTGAKPSETFARFCKSQESAL: the protein stability index turned out to be 2.84. Still for that read-out and setting: the figure for FAPQTGAMPSETFARFCKSQESAL is 1.87. Still for that read-out and setting: the same measure for FAPQTGAQPSETFARFCKSQESAL: 1.59; for FAPQTGAYPSETFARFCKSQESAL: 1.81.

With FAPQTGAIPSETFARFCKSQESAL, the protein stability index is 1.71.

On to FAPQTTARPSETFARFCKSQESAL, for which the protein stability index is 2.51. The same measure, in the same setting: the same measure for FAPQTDARPSETFARFCKSQESAL: 2.04; for FAPQTLARPSETFARFCKSQESAL: 2.07; for FAPQTYARPSETFARFCKSQESAL: 1.86. Still for that read-out and setting: the figure for FAPQTFARPSETFARFCKSQESAL is 2.86; for FAPQTMARPSETFARFCKSQESAL it is 2.32. The same measure, in the same setting: the same measure for FAPQTSARPSETFARFCKSQESAL: 1.9.
